{
  "source": "paper PMC7060403",
  "about": "(Journal of molecular biology, 2019)",
  "binders": {"B1": {"name": "LC8 from Drosophila melanogaster (natural protein, UniProt Q24117 1-89, looked up)", "chain": "MSDRKAVIKNADMSEEMQQDAVDCATQALEKYNIEKDIAAYIKKEFDKKYNPTWHCIVGRNFGSYVTHETRHFIYFYLGQVAILLFKSG"}},
  "target": "T1, RavP-C (C-terminal region of the rabies virus phosphoprotein, residues 140-297) (rabies virus, UniProt P22363 140-297)",
  "T1 sequence": "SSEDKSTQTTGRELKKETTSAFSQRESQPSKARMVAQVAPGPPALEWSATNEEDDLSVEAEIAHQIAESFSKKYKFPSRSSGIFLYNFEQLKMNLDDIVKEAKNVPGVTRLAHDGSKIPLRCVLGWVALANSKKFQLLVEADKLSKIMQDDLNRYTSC",
  "test": "ITC",
  "data": [
    {"binder": "B1", "values": [
      {"measurement": "Kd", "result": 4.19, "unit": "µM"}
    ]}
  ]
}
